Results reported in US20220340682A1 (Sanofi, published 2022).
Changes are numbered by the printed parent chain.

T1: hCEACAM1, human CEACAM1 ECD (35-428) (human, UniProt P13688 35-428)
T1 construct: With 24 amino acid extension containing a His-Tag; also called hEACAM1
T1 sequence: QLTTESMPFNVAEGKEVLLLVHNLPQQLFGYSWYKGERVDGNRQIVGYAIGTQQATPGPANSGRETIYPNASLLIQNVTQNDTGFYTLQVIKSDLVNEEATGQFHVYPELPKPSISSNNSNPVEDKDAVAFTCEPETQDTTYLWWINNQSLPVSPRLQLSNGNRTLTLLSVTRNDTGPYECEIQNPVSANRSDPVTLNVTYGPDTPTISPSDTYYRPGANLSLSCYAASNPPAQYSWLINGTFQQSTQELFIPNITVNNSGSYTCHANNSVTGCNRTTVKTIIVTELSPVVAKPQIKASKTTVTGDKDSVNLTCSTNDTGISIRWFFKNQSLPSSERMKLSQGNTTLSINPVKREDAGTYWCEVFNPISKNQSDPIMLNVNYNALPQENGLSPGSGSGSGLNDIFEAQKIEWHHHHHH

T2: hCEACAM6, human CEACAM6 ECD (35-327) (human, UniProt P40199 35-327)
T2 construct: With 24 amino acid extension containing a His-Tag
T2 sequence: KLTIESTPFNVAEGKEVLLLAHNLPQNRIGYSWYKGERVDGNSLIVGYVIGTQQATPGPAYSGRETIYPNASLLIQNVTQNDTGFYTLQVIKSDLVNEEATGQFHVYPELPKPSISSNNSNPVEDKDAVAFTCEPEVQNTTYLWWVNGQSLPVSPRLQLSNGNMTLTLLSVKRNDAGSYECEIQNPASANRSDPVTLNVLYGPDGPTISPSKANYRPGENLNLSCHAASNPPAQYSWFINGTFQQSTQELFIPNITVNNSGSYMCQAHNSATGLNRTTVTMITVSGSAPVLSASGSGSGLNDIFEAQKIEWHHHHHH

T3: hCEACAM8, human CEACAM8 ECD (35-332) (human, UniProt P31997 35-332)
T3 construct: With 24 amino acid extension containing a His-Tag
T3 sequence: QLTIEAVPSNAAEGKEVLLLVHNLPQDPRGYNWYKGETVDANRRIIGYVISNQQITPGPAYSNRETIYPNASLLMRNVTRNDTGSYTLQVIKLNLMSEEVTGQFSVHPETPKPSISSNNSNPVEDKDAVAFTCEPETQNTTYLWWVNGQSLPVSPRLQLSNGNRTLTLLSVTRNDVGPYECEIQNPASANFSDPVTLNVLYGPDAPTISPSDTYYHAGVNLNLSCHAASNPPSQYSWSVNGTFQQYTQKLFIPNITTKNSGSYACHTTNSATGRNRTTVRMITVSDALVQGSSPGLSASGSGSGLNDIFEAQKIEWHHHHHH

T4: human CEACAM5 expressed on the surface of tumor cells (human, UniProt P06731 35-685)
T4 construct: Endogenous CEACAM5 of human tumor cells; also called hCEACAM5 on MKN45 cells; CEACAM5 on CR-IGR-034P primary colon tumor cells
T4 sequence: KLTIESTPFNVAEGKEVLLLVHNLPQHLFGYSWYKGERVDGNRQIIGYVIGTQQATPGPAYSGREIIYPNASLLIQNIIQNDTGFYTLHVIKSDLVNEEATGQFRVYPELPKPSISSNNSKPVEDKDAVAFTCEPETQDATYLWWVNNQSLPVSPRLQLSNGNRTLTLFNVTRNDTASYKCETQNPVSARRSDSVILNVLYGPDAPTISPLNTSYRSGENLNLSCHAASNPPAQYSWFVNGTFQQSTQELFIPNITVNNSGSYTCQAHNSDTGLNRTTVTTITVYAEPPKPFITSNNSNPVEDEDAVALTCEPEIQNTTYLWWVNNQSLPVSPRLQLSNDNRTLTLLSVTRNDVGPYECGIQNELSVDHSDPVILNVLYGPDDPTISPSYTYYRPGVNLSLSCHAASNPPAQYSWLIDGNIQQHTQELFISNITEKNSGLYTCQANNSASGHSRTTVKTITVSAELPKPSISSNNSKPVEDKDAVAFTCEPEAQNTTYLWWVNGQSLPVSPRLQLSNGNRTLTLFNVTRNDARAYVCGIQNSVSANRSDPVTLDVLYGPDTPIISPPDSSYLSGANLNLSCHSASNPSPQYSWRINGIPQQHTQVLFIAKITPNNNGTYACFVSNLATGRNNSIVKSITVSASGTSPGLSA

B1: huMAb2-3 (antibody, human IgG1, kappa, V domains shown)
VH: EVQLQESGPGLVKPGGSLSLSCAASGFVFSSYDMSWVRQTPERGLEWVAYISSGGGITYAPSTVKGRFTVSRDNAKNTLYLQMNSLTSEDTAVYYCAAHYFGSSGPFAYWGQGTLVTVSS
VL: DIQMTQSPASLSASVGDRVTITCRASENIFSYLAWYQQKPGKSPKLLVYNTRTLAEGVPSRFSGSGSGTDFSLTISSLQPEDFATYYCQHHYGTPFTFGSGTKLEIKR
notes: Humanized MAb2, human IgG1 / Ckappa; also called MAb2_VL1cVH1a-IgG1
B2: huMAb2-4 (antibody, human IgG1, kappa, V domains shown)
VH: B1 VH with G44R, A60F, V93I, S120A
VL: B1 VL with R18T, D70Q, A84G, T85S
notes: Humanized MAb2, human IgG1 / Ckappa; also called MAb2_VL1d VH1-IgG1; MAb2_VL1dVH1-IgG1
B3: chMAb2 (antibody, human IgG1, kappa, V domains shown)
VH: EVQLQESGGVLVKPGGSLKLSCAASGFVFSSYDMSWVRQTPEKRLEWVAYISSGGGITYFPDTVQGRFTVSRDNAKNTLYLQMNSLKSEDTAIYYCAAHYFGSSGPFAYWGQGTLVTVSA
VL: B1 VL with D17E, R18T, P40Q, K45Q, R52K, D70Q, T74K, S76N, A84G, T85S
notes: Chimeric, human IgG1, Ck isotype; also called MAb2-IgG1; chimeric MAb2
B4: huMAb2-1 (antibody, V domains shown)
VH: B1 VH with G44R, A60F, V93I, S120A
VL: DIQMTQSPASLSASVGDTVTITCRASENIFSYLAWYQQKPGKSPKLLVYNTKTLAEGVPSRFSGSGSGTQFSLTISSLQPEDFGSYYCQHHYGTPFTFGSGTKLEIK
notes: Humanized MAb2 (VL1 + VH1) fused to human IgG1 and human Ckappa constant domains; also called MAb2_VL1VH1-IgG1; MAb2VL1VH1-IgG1
B5: huMAb2-2 (antibody, V domains shown)
VH: B1 VH
VL: B4 VL with T18R, Q70D, G84A, S85T
notes: Humanized MAb2 (VL1a + VH1a) fused to human IgG1 and human Ckappa constant domains; also called MAb2_VL1aVH1a-IgG1; MA2_VL1aVH1a-IgG1
B6: antibody MAb1 (antibody, IgG1, V domains shown)
VH: EVMLVESGGGLVKPGGSLKLSCAASGFTFSSYAMSWVRQTPEKRLEWVATISSGGSYIYYLDSVKGRFTISRDNAKNTLYLQMSSLRSEDTAMYYCARPAYYGNPAMDYWGQGTSVTVSS
VL: DILMTQSQKFMSTSVGDRVSVTCKASQNVGTNVAWYQQKPGQSPKPLIYSASYRYSGVPDRFTGSGSGTDFTLTISNVQSEDLAEYFCQQYNSYPLYTFGGGTKLEIK
B7: antibody MAb3 (antibody, IgG1, V domains shown)
VH: EVKLVESGGGLVKPGGSLTLPCAASGFTFSRYAMSWVRQTPEKRLEWVASISSGGDTYYPDSVKGRFTVSRDNARNILFLQMSSLRSEDTGMYYCARVNYYDSSFLDWWGQGTTLTVSS
VL: B6 VL with L3V, K9R, S14L, V15E, P46A, S93N
notes: Murine monoclonal from hybridoma, IgG1, kappa
B8: antibody MAb4 (antibody, IgG1, V domains shown)
VH: EVQLVESGGGLVKPGGSLKLSCAASGFTFSSYDMSWVRQTPEKRLEWVAFISSYGGRTYYADTVKGRFTISRDNAKNTLYLQMSSLKSEDTAMFYCAAHYFGTSGPFAYWGQGTLVTVSA
VL: DIQMTQSPASLSASVGETVTITCRASENIYSYFAWYQQKQGKSPQLLVYNAKILAEGVPSRFSGSGSGTQFSLKINSLQPEDFGTYYCQHHYGIPFTFGSGTKLELK
notes: as for B7
B9: antibody MAb5 (antibody, IgG1, V domains shown)
VH: ELQLVESGGVLVKPGGSLKLSCAASGFAFSSYDMSWVRQTPEKRLEWVTYINSGGGITYYPDTVKGRFTISRDNARNTLYLQMSSLKSEDTAIYYCTAHYFGSSGPFAYWGQGTLVTVSA
VL: B8 VL with F33L, I53T, A55T, T85S, I94T, L106I
notes: as for B7

What follows are binders tested against T1, hCEACAM1, human CEACAM1 ECD (35-428) (assay: ELISA).

Binder | percentage of binding compared to full binding with human CEACAM5
B1 | 0.3%
B2 | 0.3%
B3 | 0.3%
B4 | 0.3%
B5 | 0.3%

Each binder was assayed against T2, hCEACAM6, human CEACAM6 ECD (35-327) (assay: ELISA).

Binder | percentage of binding compared to full binding with human CEACAM5
B1 | 0.3%
B2 | 0.3%
B3 | 0.3%
B4 | 0.2%
B5 | 0.3%

Each binder was assayed against T3, hCEACAM8, human CEACAM8 ECD (35-332) (assay: ELISA).

Binder | percentage of binding compared to full binding with human CEACAM5
B1 | 0.6%
B2 | 1.4%
B3 | 0.6%
B4 | 0.9%
B5 | 0.5%

These binders were tested against T4, human CEACAM5 expressed on the surface … (assay: flow cytometry on MKN45 cells).
Description: The apparent affinity of anti-CEACAM5 antibodies to hCEACAM5 expressed on the surface of human MKN45 (DSMZ, ACC 409) tumoral cells were determined by Guava® easyCyte™ 8HT Flow Cytometry System. MKN45 tumoral cells were coated at 40,000 cells/well on 96-well High Bind plate (MSD L15XB-3) and 100 μL/well of anti-CEACAM5 antibodies were added in 2-fold serial dilutions starting at 20 μg/ml up to 12 dilutions in assay diluant for 45 min at 4° C. and washed three times with PBS 1% BSA. 100 μL/well of goat anti-mouse IgG conjugated with Alexa647 (Invitrogen; # A2135) was added for 45 min at 4° C. and washed three times with PBS 1% BSA. The antibody binding was evaluated after centrifugation and resuspension of cells by adding 200 μl/well PBS 1% BSA and read using Guava® easyCyte™ 8HT Flow Cytometry System. Apparent KD and EC₅₀ values were estimated using BIOST@T-BINDING and BIOST@T-SPEED softwares, respectively.

Binder | EC50
B6 | 16 nM
B7 | 6.2 nM
B8 | 4.9 nM
B9 | 0.73 nM
